Results from publication PMC7390762.

Target: N-utilization substance (Nus) G, Escherichia coli (E. coli) (UniProt P0AFG0)
Experiment: cryo-EM structure

Sequence of UniProt P0AFG0 (P0AFG0 whole entry): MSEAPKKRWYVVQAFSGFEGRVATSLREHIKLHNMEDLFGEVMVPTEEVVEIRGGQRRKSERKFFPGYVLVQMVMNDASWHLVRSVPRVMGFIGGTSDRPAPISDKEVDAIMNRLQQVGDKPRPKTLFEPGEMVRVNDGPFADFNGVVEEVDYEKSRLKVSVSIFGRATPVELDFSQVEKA

## 70S ribosome (E. coli), intact (from UniProt P0A7R5 5-102) (complex)
  percent of particles with extra density at S10: 5%
  stoichiometry N: 1
